Experimental data from patent US12534540B2, “CYP1A1-targeted monoclonal antibody with reactivity across vertebrate taxa” (Clemson University Research Foundation, priority 2023, dated 2026).
Read-outs that look alike come from different tables or passages of the source.

How the values were obtained:
[1] = system: CYP1A; test: Tissue immunohistochemistry, Gulf killifish liver; settings: crude oil-exposed adult gulf killifish vs genetically resistant population; FIG. 3 panels E and F
Method: (§1) Grossly dissected archived tissues (fixed and stored at 4° C. in 70% ethanol) were processed and embedded in ParaPlast Extra. Newly embedded tissues were then sectioned and affixed to charged slides for immunohistochemistry. Mouse liver tissues used for this study were from previous studies wherein mice were exposed to 1 mg/kg PCB-126 prior to tissue fixation. Archived rainbow trout livers (and microsomes stored at −80° C. from beta-naphthoflavone ([…])-treated animals from a previous study (Rice et al. 1998 Mar. environ. Res. 46:87-91) were used for immunohistochemistry and immunoblotting. Archived liver tissue from Gulf killifish collected from sites affected by the Deepwater Horizon spill (DHOS) were analyzed for CYP1A alongside livers from a lab-held colony of CYP1A-recalcitrant Gulf killifish, which is used as a molecular control (naturally acquired CYP1A knockdown) (Oziolor et al. 2016 Aquat. Toxicol. 175:222-231). Finally, previously analyzed embryonic chicken livers exposed to airborne volatiles from DHOS oil were included for additional species comparison.
(§2) Zebrafish (strain AB) exposed to PCB-126 (Ulra Scientific) were also used for this study. Zebrafish were housed at the former Clemson Institute of Environmental Toxicology, Pendleton SC and maintained under Clemson University IACUC approved methods. […]

[2] = target: core vertebrate CYP1A sequence IRDITSLI (SEQ ID NO:35) (Homo sapiens, UniProt P04798); test: ELISA against conserved core CYP1A peptide; assay type: binding; settings: FIG. 1 panel B
Method: Using additional screening approaches, ELISAs were carried out to determine if either of the three mAbs would recognize the core vertebrate CYP1A sequence [sequence] (SEQ ID NO:35)). […] Based on the general rule of thumb that confluent supernatants contain approximately 30 μg/mL of specific antibody, a total of 60 μg of the peptide in 100 μL PBS as the highest concentration was serially diluted and 50 μL of each dilution were mixed with 50 μL confluent supernatants to yield 100 μL of total mixture for screening ELISA plates coated with the original zebrafish peptide. This mixture of hybridoma supernatant and peptide dilutions was allowed to incubate overnight at 4° C. The next day these mixtures of 100 μL total sample were mixed by gentle agitation and added to zebrafish CYP1A1 peptide-pre-coated ELISA plates and incubated for 2 h at RT. After extensive washings with PBST, the plates were incubated with goat anti-mouse IgG conjugated with alkaline phosphatase for 2 h, washed extensively, and developed and quantified at 405 nm and the data recorded.

[3] = system: induced CYP1A1 across vertebrate taxa; assay type: binding
Method: Screening mAbs against cell line lysates: […] This medium also supports the growth of frog XLK-WG cells (ATCC, Manassas, VA, USA). Other cells and tissues used for testing and screening are outlined in Table 2. Arochlor 1254-induced and non-induced rat liver S9 fractions were thawed immediately upon receipt from the supplier and prepared for SDS-PAGE-immunoblotting by boiling for 7 min in reducing sample buffer (Thermo Fisher J61337.AD) containing 50 μM PMSF. Commercially sourced HEK cell lysates over-expressing recombinant human CYP1A1 (Origene, Rockville, MD, USA) were prepared similarly. […]-1, and HEPA1C1C7 cells were grown to near confluence in 6-well plates ([…], Corning). Plates seeded with ZFL cells and PLHC-1 cells were sealed with parafilm and kept in sealed containers to avoid external CO2. Cells were treated for 48 h with 10 μM PCB-126 (CAS 57465-28-8, Ultra Scientific) dissolved in DMSO or 0.01% DMSO as a carrier control. XLK-WG cells were grown to near confluence in sealed T-75 flasks, then treated for 12 h with 50 nM of the AHR ligand 6-Formylindolo [3,2-b] carbazole (FICZ) (CAS 172922-91-7, Tocris Biosciences, Bristol, UK) in DMSO or 0.01% DMSO, and again for an additional 12 h with the same. […] Overlying supernatants were removed and transferred to clean tubes and the protein content quantified. […]

[4] = system: zebrafish CYP1A peptide used for immunizations
[5] = system: CYP1A
Method: as §1
(§3) Zebrafish (strain AB) exposed to PCB-126 (Ulra Scientific) were also used for this study. Zebrafish were housed at the former Clemson Institute of Environmental Toxicology, Pendleton SC and maintained under Clemson University IACUC approved methods. Two juvenile male and two juvenile female zebrafish (40 dpf) were exposed for 48 h to either 10 μM PCB-126 or 0.10% DMSO in 1 L glass bottles containing maintenance water from the recirculating system and supplied with gentle aeration. Following exposure, the 4 fish per treatment were euthanized on ice with buffered Tricaine®, their abdominal cavities opened, and placed in 10% aqueous buffered zinc formalin (Z-Fix, Anatech, Ltd., Battle Creek, MI, USA) for 2 days, and the fixative replaced with 70% ethanol and stored at 4° C. Prior to processing, zebrafish were decalcified in 0.35 M EDTA, pH 7.8 at room temperature (RT) for 6 days, then processed for microtomy as above. Fish and chicken tissue IHC was performed using a horse-anti-mouse IgG VectaLabs ABC-Elite kit (PK-6102), while mouse tissue IHC was performed using the mouse-on-mouse (M.O.M.) anti-mouse IgG VectaLabs ABC-Ultra kit (BMK-2202)
(§4) Whole zebrafish tissues were sectioned at 7-9 μm and mouse, trout, killifish, and chicken tissues were sectioned at 4-5 μm on a Microm 325 rotary microtome. […] Additional screening assays included isotype controls.

[6] = target: T1, CYP1A (Mus musculus, UniProt P00184)
T1 sequence (P00184 1-524): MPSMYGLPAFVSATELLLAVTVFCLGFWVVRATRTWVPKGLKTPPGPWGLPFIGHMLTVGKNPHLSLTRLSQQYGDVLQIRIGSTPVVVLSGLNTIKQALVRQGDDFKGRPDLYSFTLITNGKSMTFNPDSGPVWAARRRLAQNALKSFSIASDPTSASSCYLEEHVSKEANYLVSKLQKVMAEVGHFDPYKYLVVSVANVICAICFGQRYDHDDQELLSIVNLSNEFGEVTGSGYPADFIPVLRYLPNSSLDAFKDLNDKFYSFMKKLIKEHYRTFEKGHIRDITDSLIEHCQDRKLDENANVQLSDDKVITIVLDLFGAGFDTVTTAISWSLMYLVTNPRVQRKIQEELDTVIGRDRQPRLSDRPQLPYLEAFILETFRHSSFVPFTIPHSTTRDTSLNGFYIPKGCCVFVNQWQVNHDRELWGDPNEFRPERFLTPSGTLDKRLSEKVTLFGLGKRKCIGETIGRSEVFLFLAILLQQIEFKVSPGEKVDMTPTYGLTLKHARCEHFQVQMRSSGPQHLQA
Method: as §1, §3, §4

[7] = system: CYP1A; test: Tissue immunohistochemistry, rainbow trout liver; settings: rainbow trout treated with 3-NF; FIG. 3 panels G and H
Method: as §1, §2

zebrafish CYP1A peptide used for immunizations, sequence (as listed by the source): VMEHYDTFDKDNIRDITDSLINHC

B1: mAb CRC4: zebrafish CYP1A-targeted mouse monoclonal antibody; VH SEQ ID NO:17, VL SEQ ID NO:20, CDRs SEQ ID NOs:28-33 (antibody, V domains shown)
VH: QVTLKESGPGILQPSQTLSLTCSFSGFSLSTSGMGVNWIRKPSGKGLEWLAHIFWDDDKRYNPSLKSRLTISKDTSRNQVFLMITSVDTADTATYYCASLAMDYWGQGTSVTVSS
VL: DIVMTQGASSVTVTPGESVSISCRSSKSLLHSNGRTFLYWFLQRPGQSPQLLIYRMSNLASGVPDRVSGSGSGTAFTLRISRVEAEDVGVYYCMQHLEYPFTFGGGTRLELK
CYP1A detection in liver by IHC [1]: easily detected in adult gulf killifish but not in individuals from a genetically resistant population | recognition of core vertebrate CYP1A peptide by ELISA [2]: recognized this peptide sequence | recognition of treatment-induced CYP1A protein by immunoblotting [3]: recognized by mAb CRC4 across all vertebrate taxa examined | ELISA reactivity against zebrafish CYP1A peptide (selection criteria) [4]: meeting selection criteria | CYP1A detection in liver by IHC [5]: easily detected | CYP1A staining intensity in liver by IHC [5]: most intense staining | staining after antigen retrieval [5]: more favorable staining | staining intensity of chicken tissues compared with mAb C10-7 [5]: same intensity as seen using mAb C10-7 | CYP1A detection in liver by IHC [6]: easily detected in PCB-126-exposed mouse livers but not unexposed controls | CYP1A staining intensity in liver by IHC [7]: most intense staining
